Where a chain is given by its changes, count along the chain named.

These results are taken from US20240151728A1 (KOREA INSTITUTE OF SCIENCE AND TECHNOLOGY, published 2024).

Assay [1] concerns the target T1, hMSLN recombinant protein (human mesothelin) (human, UniProt Q13421 296-598, limits assumed).
T1 construct: Amine-coupled to a CM5 chip for SPR; also called recombinant mesothelin (MSLN); biotinylated hMSLN recombinant protein
Kind of assay: SPR, BIAcore T200; hMSLN amine-coupled on CM5 chip, scFv injected; 1:1 Langmuir model; mean of three experiments. The procedure:
(§1) To measure the affinity of the selected variants, surface plasmon resonance (SPR) was performed by using a BIAcore T200 device. For analysis, hMSLN was immobilized on a CM5 sensor chip by using an amine coupling method. Experiments were performed by using HBS-EP buffer, and diluted samples of each scFv variant were injected at a rate of 30 μl/min for 120 seconds and dissociated for 5 minutes. After the first experiment, 5 mM NaOH and 0.5 M arginine at pH 8.0 were sequentially injected for 30 seconds to regenerate the chip. For each scFv variant, three separate experiments were averaged to determine a dissociation constant, and each dissociation constant was determined by using a 1:1 Langmuir model in BIAevaluation 3.2 software.
For orientation: In SPR one partner is held on a chip, and binding of the other changes the refractive index at the surface.

The target in assay [2] is T1, hMSLN recombinant protein (human …). The assay is described as follows: ELISA: 100 ng purified scFv coated per well, biotinylated hMSLN titrated, streptavidin-HRP, A450; the concentration varied is that of hMSLN. On the procedure:
(§2) Specifically, each well of the 96-well immune plate was coated with 100 ng of the scFv variants produced as recombinant proteins at 4° C. for 16 hours. After adding 100 μl of pH 7.4 PBS supplemented with 3% bovine serum albumin (BSA) to each well, the cells were incubated at room temperature for 1 hour, and the plate was washed three times with 350 μl of PBS-T. The biotinylated hMSLN recombinant protein was diluted to 1 μM, 200 nM, 40 nM, 8 nM, 1.6 nM, and 0.32 nM in the pH 7.4 PBS, and reacted at room temperature for 1 hour with each of the coated scFv antibodies. Afterwards, the cells were washed three times with 350 μl of PBS-T per well. Then, 50 μl of HRP-conjugated streptavidin diluted at 1:15,000 in the pH 7.4 PBS was added to the cells followed by incubation of the cells at room temperature for 1 hour, and washing three times with 350 μl of PBS-T. After adding 50 μl of TMB, the cells were incubated at room temperature for 15 minutes, the reaction was terminated by adding 50 μl of 2 M H₂SO₄, and the absorbance at 450 nm was measured.
In general terms: An ELISA detects its analyte on a solid surface through an enzyme-linked reagent.

The target of assay [3] is T2, hMSLN recombinant protein (human mesothelin) (human, UniProt Q13421 296-598). Kind of assay: SPR, BIAcore T200; hMSLN amine-coupled on CM5 chip, scFv injected; 1:1 Langmuir model; mean of three experiments. The procedure: as §1
T2 sequence (Q13421 other isoform, or with tags, fused parts or gaps): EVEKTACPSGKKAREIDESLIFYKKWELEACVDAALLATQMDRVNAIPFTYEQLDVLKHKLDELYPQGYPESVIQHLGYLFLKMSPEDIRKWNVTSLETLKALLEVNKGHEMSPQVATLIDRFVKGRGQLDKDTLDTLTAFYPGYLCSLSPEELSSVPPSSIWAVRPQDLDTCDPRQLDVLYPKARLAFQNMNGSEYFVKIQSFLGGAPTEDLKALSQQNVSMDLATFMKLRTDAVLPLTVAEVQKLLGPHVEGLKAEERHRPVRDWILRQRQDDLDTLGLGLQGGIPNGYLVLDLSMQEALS
The target in assay [4] is T2, hMSLN recombinant protein (human …). Kind of assay: ELISA: 100 ng purified scFv coated per well, biotinylated hMSLN titrated, streptavidin-HRP, A450; the concentration varied is that of hMSLN. The procedure: as §2

T1 sequence (Q13421 other isoform, or with tags, fused parts or gaps limits assumed): as the sequence (Q13421 other isoform, or with tags, fused parts or gaps) above

B1: wild-type M5 scFv (DFDY) (scFv)
scFv: QVQLVQSGAEVEKPGASVKVSCKASGYTFTDYYMHWVRQAPGQGLEWMGWINPNSGGTNYAQKFQGRVTMTRDTSISTAYMELSRLRSDDTAVYYCASGWDFDYWGQGTLVTVSSGGGGSGGGGSGGGGSGGGGSDIVMTQSPSSLSASVGDRVTITCRASQSIRYYLSWYQQKPGKAPKLLIYTASILQNGVPSRFSGSGSGTDFTLTISSLQPEDFATYYCLQTYTTPDFGPGTKVEIK
notes: Recombinant protein made in E. coli BL21(DE3) and purified; also called WT M5 scFv; WT DFDY
Usually Kd stands for the free concentration of one partner at which half of the binding sites on the other are occupied at equilibrium, for simple one-to-one binding. The EC50 (read off the curve) is the concentration at which the effect is half-maximal. In the case of B1, the Kd in assay [1] was found to be 11.2 nM. Further, the “EC50 (read off the curve)” value in assay [2] is approximately 40 nM.

B2: M5 scFv variant DVAY (scFv)
chain: B1 scFv with F102V, D103A
For the molecule B2, the Kd in assay [3] amounted to 121 nM.

B3: DGAD (scFv)
chain: B1 scFv with F102G, D103A, Y104D
For the molecule B3, the 50% effective concentration (EC50 (read off the curve)) in assay [4] is approximately 40 nM.
